Data taken from publication PMC9352680, “A comprehensive thermodynamic model for RNA binding by the Saccharomyces cerevisiae Pumilio protein PUF4”.

T1: PUF4 RNA-binding domain (Saccharomyces cerevisiae, UniProt P25339 537-888)
T1 sequence: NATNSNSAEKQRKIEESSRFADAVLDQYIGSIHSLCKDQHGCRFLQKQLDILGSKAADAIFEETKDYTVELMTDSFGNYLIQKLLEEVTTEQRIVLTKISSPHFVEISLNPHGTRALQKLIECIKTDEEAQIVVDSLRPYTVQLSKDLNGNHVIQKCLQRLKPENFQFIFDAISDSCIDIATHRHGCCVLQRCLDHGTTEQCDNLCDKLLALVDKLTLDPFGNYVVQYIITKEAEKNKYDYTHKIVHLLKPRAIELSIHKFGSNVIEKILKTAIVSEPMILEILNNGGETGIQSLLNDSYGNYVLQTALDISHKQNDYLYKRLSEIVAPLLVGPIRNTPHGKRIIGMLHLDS


What follows are binders tested against T1, PUF4 RNA-binding domain (assay: Mg; RNA-MaP; 20 mM Na-HEPES pH 7.4, 30 mM KOAc, 0.75 mM MgCl2, 0.1% Tween-20, 5% glycerol, 0.1 mg/mL BSA, 2 mM DTT; 25 C; 0.0125-409.6 nM protein). Settings: tags: N-His6-TEV cleaved; C-SNAP kept, Cy3B-labelled; label: tethered on chip by stalled RNA polymerase.

| Binder | Kd |
| --- | --- |
| UCUCUUAGUAUAUAUAAAUCUCUU (ssRNA) [Id_ii_S1_P3E.3_K3.2_C3.2_[C-2A]_[T-1G]_H3.2_A3.1_F3.1_T3.2_[T9A]] | 877 nM |
| UCUCUUUUUAUAUAUACGUCUCUU (ssRNA) [Id_ii_S1_P3E.3_K3.2_C3.2_[C-2T]_H3.2_A3.1_F3.1_T3.2_[T9C]_[A10G]] | 1560 nM |
| UCUCUUACUAUAUAUACUUCUCUU (ssRNA) [Id_ii_S1_P3E.3_K3.2_C3.2_[C-2A]_[T-1C]_H3.2_A3.1_F3.1_T3.2_[T9C]_[A10T]] | 918 nM |
| UCUCUUUUUAUAUAUAAUUCUCUU (ssRNA) [Id_ii_S1_P3E.3_K3.2_C3.2_[C-2T]_H3.2_A3.1_F3.1_T3.2_[T9A]_[A10T]] | 968 nM |
| UCUCUUAUUAUAUAUAUUUCUCUU (ssRNA) [Id_ii_S1_P3E.3_K3.2_C3.2_[C-2A]_H3.2_A3.1_F3.1_T3.2_[A10T]] | 383 nM |
| UCUCUUAAUAUAUAUACUUCUCUU (ssRNA) [Id_ii_S1_P3E.3_K3.2_C3.2_[C-2A]_[T-1A]_H3.2_A3.1_F3.1_T3.2_[T9C]_[A10T]] | 344 nM |
| UCUCUUAGUAUAUAUAUUUCUCUU (ssRNA) [Id_ii_S1_P3E.3_K3.2_C3.2_[C-2A]_[T-1G]_H3.2_A3.1_F3.1_T3.2_[A10T]] | 452 nM |
| UCUCUUCGUAUAUAUAUAUCUCUU (ssRNA) [Id_ii_S1_P3E.3_K3.2_C3.2_[T-1G]_H3.2_A3.1_F3.1_T3.2] | 488 nM |
| UCUCUUUUUAUAUAUAUCUCUCUU (ssRNA) [Id_ii_S1_P3E.3_K3.2_C3.2_[C-2T]_H3.2_A3.1_F3.1_T3.2_[A10C]] | 759 nM |
| UCUCUUUUUAUAUAUACCUCUCUU (ssRNA) [Id_ii_S1_P3E.3_K3.2_C3.2_[C-2T]_H3.2_A3.1_F3.1_T3.2_[T9C]_[A10C]] | 1430 nM |
| UCUCUUCGUAUAUAUAAUUCUCUU (ssRNA) [Id_ii_S1_P3E.3_K3.2_C3.2_[T-1G]_H3.2_A3.1_F3.1_T3.2_[T9A]_[A10T]] | 675 nM |
| UCUCUUUUUAUAUAUAUUUCUCUU (ssRNA) [Id_ii_S1_P3E.3_K3.2_C3.2_[C-2T]_H3.2_A3.1_F3.1_T3.2_[A10T]] | 457 nM |
| UCUCUUAGUAUAUAUAUGUCUCUU (ssRNA) [Id_ii_S1_P3E.3_K3.2_C3.2_[C-2A]_[T-1G]_H3.2_A3.1_F3.1_T3.2_[A10G]] | 502 nM |
| UCUCUUACUAUAUAUAUGUCUCUU (ssRNA) [Id_ii_S1_P3E.3_K3.2_C3.2_[C-2A]_[T-1C]_H3.2_A3.1_F3.1_T3.2_[A10G]] | 968 nM |
| UCUCUUAAUAUAUAUAUUUCUCUU (ssRNA) [Id_ii_S1_P3E.3_K3.2_C3.2_[C-2A]_[T-1A]_H3.2_A3.1_F3.1_T3.2_[A10T]] | 972 nM |
| UCUCUUAUUAUAUAUAUAUCUCUU (ssRNA) [Id_ii_S1_P3E.3_K3.2_C3.2_[C-2A]_H3.2_A3.1_F3.1_T3.2] | 424 nM |
| UCUCUUACUAUAUAUACAUCUCUU (ssRNA) [Id_ii_S1_P3E.3_K3.2_C3.2_[C-2A]_[T-1C]_H3.2_A3.1_F3.1_T3.2_[T9C]] | 1290 nM |
| UCUCUUAGUAUGUUAUCUCUU (ssRNA) [Ib_S1_P4E.1_K4.1_C4.1_H4.1_[T1A]_A4.1_[A6G]_F4.1_T4.1] | 1080 nM |
| UCUCUUUUUAUAUAUAAGUCUCUU (ssRNA) [Id_ii_S1_P3E.3_K3.2_C3.2_[C-2T]_H3.2_A3.1_F3.1_T3.2_[T9A]_[A10G]] | 1550 nM |
| UCUCUUCGUAUAUAUAACUCUCUU (ssRNA) [Id_ii_S1_P3E.3_K3.2_C3.2_[T-1G]_H3.2_A3.1_F3.1_T3.2_[T9A]_[A10C]] | 629 nM |

| Binder | Kd |
| --- | --- |
| UCUCUUACUAUAUAUACCUCUCUU (ssRNA) [Id_ii_S1_P3E.3_K3.2_C3.2_[C-2A]_[T-1C]_H3.2_A3.1_F3.1_T3.2_[T9C]_[A10C]] | 848 nM |
| UCUCUUAAUAUAUAUAAAUCUCUU (ssRNA) [Id_ii_S1_P3E.3_K3.2_C3.2_[C-2A]_[T-1A]_H3.2_A3.1_F3.1_T3.2_[T9A]] | 1290 nM |
| UCUCUUCGUAUAUAUACCUCUCUU (ssRNA) [Id_ii_S1_P3E.3_K3.2_C3.2_[T-1G]_H3.2_A3.1_F3.1_T3.2_[T9C]_[A10C]] | 1710 nM |
| UCUCUUAUUAUAUAUACGUCUCUU (ssRNA) [Id_ii_S1_P3E.3_K3.2_C3.2_[C-2A]_H3.2_A3.1_F3.1_T3.2_[T9C]_[A10G]] | 1860 nM |
| UCUCUUAGUAUAUAUACCUCUCUU (ssRNA) [Id_ii_S1_P3E.3_K3.2_C3.2_[C-2A]_[T-1G]_H3.2_A3.1_F3.1_T3.2_[T9C]_[A10C]] | 954 nM |
| UCUCUUUCUACAUUAUCUCUU (ssRNA) [Ib_S1_P4E.1_K4.1_C4.1_H4.1_[G2C]_A4.1_[T5C]_F4.1_T4.1] | 1450 nM |
| UCUCUUAUUAUAUAUAGCUCUCUU (ssRNA) [Id_ii_S1_P3E.3_K3.2_C3.2_[C-2A]_H3.2_A3.1_F3.1_T3.2_[T9G]_[A10C]] | 1310 nM |
| UCUCUUAGUAUAUAUAUCUCUCUU (ssRNA) [Id_ii_S1_P3E.3_K3.2_C3.2_[C-2A]_[T-1G]_H3.2_A3.1_F3.1_T3.2_[A10C]] | 652 nM |
| UCUCUUAGUAUAUAUAGUUCUCUU (ssRNA) [Id_ii_S1_P3E.3_K3.2_C3.2_[C-2A]_[T-1G]_H3.2_A3.1_F3.1_T3.2_[T9G]_[A10T]] | 156 nM |
| UCUCUUAUUAUAUAUACAUCUCUU (ssRNA) [Id_ii_S1_P3E.3_K3.2_C3.2_[C-2A]_H3.2_A3.1_F3.1_T3.2_[T9C]] | 599 nM |
| UCUCUUAAUAUAUAUACAUCUCUU (ssRNA) [Id_ii_S1_P3E.3_K3.2_C3.2_[C-2A]_[T-1A]_H3.2_A3.1_F3.1_T3.2_[T9C]] | 886 nM |
| UCUCUUAAUAUAUAUAGCUCUCUU (ssRNA) [Id_ii_S1_P3E.3_K3.2_C3.2_[C-2A]_[T-1A]_H3.2_A3.1_F3.1_T3.2_[T9G]_[A10C]] | 633 nM |
| UCUCUUACUAUAUAUAGCUCUCUU (ssRNA) [Id_ii_S1_P3E.3_K3.2_C3.2_[C-2A]_[T-1C]_H3.2_A3.1_F3.1_T3.2_[T9G]_[A10C]] | 2200 nM |
| UCUCUUAUUAUAUAUAUCUCUCUU (ssRNA) [Id_ii_S1_P3E.3_K3.2_C3.2_[C-2A]_H3.2_A3.1_F3.1_T3.2_[A10C]] | 993 nM |
| UCUCUUAAUAUAUAUACCUCUCUU (ssRNA) [Id_ii_S1_P3E.3_K3.2_C3.2_[C-2A]_[T-1A]_H3.2_A3.1_F3.1_T3.2_[T9C]_[A10C]] | 2250 nM |
| UCUCUUACUAUAUAUAUCUCUCUU (ssRNA) [Id_ii_S1_P3E.3_K3.2_C3.2_[C-2A]_[T-1C]_H3.2_A3.1_F3.1_T3.2_[A10C]] | 886 nM |
| UCUCUUAGUAUAAUAUCUCUU (ssRNA) [Ib_S1_P4E.1_K4.1_C4.1_H4.1_[T1A]_A4.1_[T7A]_F4.1_T4.1] | 126 nM |
| UCUCUUUUUACAUUAUCUCUU (ssRNA) [Ib_S1_P4E.1_K4.1_C4.1_H4.1_[G2T]_A4.1_[T5C]_F4.1_T4.1] | 914 nM |
| UCUCUUAUUAUAUAUACUUCUCUU (ssRNA) [Id_ii_S1_P3E.3_K3.2_C3.2_[C-2A]_H3.2_A3.1_F3.1_T3.2_[T9C]_[A10T]] | 528 nM |
| UCUCUUAGUAUUUUAUCUCUU (ssRNA) [Ib_S1_P4E.1_K4.1_C4.1_H4.1_[T1A]_A4.1_[A6T]_F4.1_T4.1] | 798 nM |

| Binder | Kd |
| --- | --- |
| UCUCUUUUUAUAUAUAUAUCUCUU (ssRNA) [Id_ii_S1_P3E.3_K3.2_C3.2_[C-2T]_H3.2_A3.1_F3.1_T3.2] | 510 nM |
| UCUCUUAAUAUAUAUAGUUCUCUU (ssRNA) [Id_ii_S1_P3E.3_K3.2_C3.2_[C-2A]_[T-1A]_H3.2_A3.1_F3.1_T3.2_[T9G]_[A10T]] | 458 nM |
| UCUCUUAUUAUAUAUAGUUCUCUU (ssRNA) [Id_ii_S1_P3E.3_K3.2_C3.2_[C-2A]_H3.2_A3.1_F3.1_T3.2_[T9G]_[A10T]] | 544 nM |
| UCUCUUAAUAUAUAUAUGUCUCUU (ssRNA) [Id_ii_S1_P3E.3_K3.2_C3.2_[C-2A]_[T-1A]_H3.2_A3.1_F3.1_T3.2_[A10G]] | 698 nM |
| UCUCUUUUUAUAUAUAGCUCUCUU (ssRNA) [Id_ii_S1_P3E.3_K3.2_C3.2_[C-2T]_H3.2_A3.1_F3.1_T3.2_[T9G]_[A10C]] | 490 nM |
| UCUCUUUUUAUAUAUACAUCUCUU (ssRNA) [Id_ii_S1_P3E.3_K3.2_C3.2_[C-2T]_H3.2_A3.1_F3.1_T3.2_[T9C]] | 1210 nM |
| UCUCUUCGUAUAUAUAAAUCUCUU (ssRNA) [Id_ii_S1_P3E.3_K3.2_C3.2_[T-1G]_H3.2_A3.1_F3.1_T3.2_[T9A]] | 653 nM |
| UCUCUUCGUAUAAUAUCUCUU (ssRNA) [Ib_S1_P4E.1_K4.1_C4.1_H4.1_[T1C]_A4.1_[T7A]_F4.1_T4.1] | 131 nM |
| UCUCUUAAUAUAUAUACGUCUCUU (ssRNA) [Id_ii_S1_P3E.3_K3.2_C3.2_[C-2A]_[T-1A]_H3.2_A3.1_F3.1_T3.2_[T9C]_[A10G]] | 1980 nM |
| UCUCUUUUUAUAUAUAUGUCUCUU (ssRNA) [Id_ii_S1_P3E.3_K3.2_C3.2_[C-2T]_H3.2_A3.1_F3.1_T3.2_[A10G]] | 1060 nM |
| UCUCUUCGUAUAUAUAGCUCUCUU (ssRNA) [Id_ii_S1_P3E.3_K3.2_C3.2_[T-1G]_H3.2_A3.1_F3.1_T3.2_[T9G]_[A10C]] | 419 nM |
| UCUCUUCCUAUAUAUAGCUCUCUU (ssRNA) [Id_ii_S1_P3E.3_K3.2_C3.2_[T-1C]_H3.2_A3.1_F3.1_T3.2_[T9G]_[A10C]] | 980 nM |
| UCUCUUAGUAUAUAUAGCUCUCUU (ssRNA) [Id_ii_S1_P3E.3_K3.2_C3.2_[C-2A]_[T-1G]_H3.2_A3.1_F3.1_T3.2_[T9G]_[A10C]] | 494 nM |
| UCUCUUUUUAUAUAUAGUUCUCUU (ssRNA) [Id_ii_S1_P3E.3_K3.2_C3.2_[C-2T]_H3.2_A3.1_F3.1_T3.2_[T9G]_[A10T]] | 272 nM |
| UCUCUUACUAUAUAUAAAUCUCUU (ssRNA) [Id_ii_S1_P3E.3_K3.2_C3.2_[C-2A]_[T-1C]_H3.2_A3.1_F3.1_T3.2_[T9A]] | 1360 nM |
| UCUCUUAUUAUAUAUAAUUCUCUU (ssRNA) [Id_ii_S1_P3E.3_K3.2_C3.2_[C-2A]_H3.2_A3.1_F3.1_T3.2_[T9A]_[A10T]] | 814 nM |
| UCUCUUAUUAUAUAUACCUCUCUU (ssRNA) [Id_ii_S1_P3E.3_K3.2_C3.2_[C-2A]_H3.2_A3.1_F3.1_T3.2_[T9C]_[A10C]] | 2290 nM |
| UCUCUUUUUAUAUAUACUUCUCUU (ssRNA) [Id_ii_S1_P3E.3_K3.2_C3.2_[C-2T]_H3.2_A3.1_F3.1_T3.2_[T9C]_[A10T]] | 708 nM |
